Key:
[1] = tested on: T1, NruI restriction endonuclease (recombinant) (Nocardia rubra); test: cleavage_in_vitro; settings: 37 C, 30 min, NEB buffer 2; complete digestion pattern; approximate value
T1 sequence: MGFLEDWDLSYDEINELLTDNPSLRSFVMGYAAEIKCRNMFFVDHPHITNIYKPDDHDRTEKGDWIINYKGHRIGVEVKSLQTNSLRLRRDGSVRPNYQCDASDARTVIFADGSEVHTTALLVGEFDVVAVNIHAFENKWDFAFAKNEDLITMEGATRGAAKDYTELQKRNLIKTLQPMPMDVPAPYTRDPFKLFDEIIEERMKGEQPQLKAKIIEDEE

[2] = tested on: T2, Sbo13I restriction endonuclease (Shigella boydii 13); test: cleavage_in_vitro; settings: 37 C, 10 mM Mg, 55 mM NaCl, pH 7.5; approximate value; lambda DNA assay
T2 sequence: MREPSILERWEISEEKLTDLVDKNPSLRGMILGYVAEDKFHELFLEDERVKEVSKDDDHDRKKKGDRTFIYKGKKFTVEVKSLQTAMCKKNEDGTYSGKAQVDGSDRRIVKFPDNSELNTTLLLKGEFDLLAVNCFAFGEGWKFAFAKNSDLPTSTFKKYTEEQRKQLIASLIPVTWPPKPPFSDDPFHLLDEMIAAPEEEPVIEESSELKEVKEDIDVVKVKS

Substance Lambda phage DNA has an activity (units per gram wet cells) [1] of 6.5e+06 and an activity (units per gram wet cell paste) [2] of 100000.

From US20090280528
